Results as given in publication PMC11870076, “Multiple carbamylation events are required for differential modulation of Cx26 hemichannels and gap junctions by CO2” (The Journal of Physiology, 2025).

Target: the molecule itself
Experiment: cryo-EM structure; GgCx26 in 0.03% DDM, 90 mmHg PCO2 aCSF buffer gassed with 15% CO2 to pH ~7.4, 3.4 mg/ml; reconstructions with D6 and C6 symmetry

B1: chicken connexin 26 (GgCx26) gap junction channel (natural protein)
chain: not shown
notes: DNA encoding GgCx26 lacking a stop codon was amplified from a GgCx26-mCherry construct, forward primer at the start ATG; in the model residues before Val9, 106-124 and after Leu215 are not built; Dodecameric gap junction channel (two docked hexamers); thrombin-cleavable C-terminal His6 tag removed with thrombin before SEC; also called chicken Cx26; Chicken (Gallus gallus) Cx26; source: Sf9 cells …
stoichiometry N: 12 subunits
